Biological target: T1, recombinant mouse Tie1-Fc (mouse, UniProt Q06806 23-755)
T1 construct: extracellular domain; also called mouse Tie1-Fc antigen; mouse Tie1-Fc fusion protein; not shown: Fc
T1 sequence (looked up): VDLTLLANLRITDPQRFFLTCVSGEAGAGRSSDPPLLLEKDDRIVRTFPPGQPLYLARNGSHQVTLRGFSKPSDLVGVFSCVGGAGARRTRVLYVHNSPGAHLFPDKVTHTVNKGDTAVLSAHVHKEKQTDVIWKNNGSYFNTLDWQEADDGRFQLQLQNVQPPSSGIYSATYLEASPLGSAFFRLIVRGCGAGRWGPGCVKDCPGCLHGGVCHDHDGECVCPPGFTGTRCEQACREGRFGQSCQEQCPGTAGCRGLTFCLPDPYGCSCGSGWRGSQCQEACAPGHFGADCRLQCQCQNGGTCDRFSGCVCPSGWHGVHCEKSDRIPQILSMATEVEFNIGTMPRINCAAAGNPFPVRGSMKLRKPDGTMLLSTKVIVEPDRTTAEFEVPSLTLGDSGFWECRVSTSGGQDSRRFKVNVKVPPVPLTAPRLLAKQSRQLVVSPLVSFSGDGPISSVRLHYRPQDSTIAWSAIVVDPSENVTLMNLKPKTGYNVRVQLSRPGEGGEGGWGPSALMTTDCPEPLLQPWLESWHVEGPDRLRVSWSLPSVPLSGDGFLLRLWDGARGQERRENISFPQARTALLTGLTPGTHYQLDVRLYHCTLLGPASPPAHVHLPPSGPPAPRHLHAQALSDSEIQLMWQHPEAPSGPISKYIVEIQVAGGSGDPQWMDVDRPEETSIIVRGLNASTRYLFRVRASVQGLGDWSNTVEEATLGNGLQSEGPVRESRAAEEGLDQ
Experiment: SPR (BIAcore 3000), Fab as analyte over mouse Tie1-Fc immobilised on a sensor chip

Kd: ~3 nM
B1: E3b Fab (germline E3 (DX-2220) Fab) (Fab, V domains shown)
VH: EVQLLESGGGLVQPGGSLRLSCAASGFTFSMYGMVWVRQAPGKGLEWVSVISPSGGNTGYADSVKGRFTISRDNSKNTLYLQMNSLRAEDTAVYYCARAPRGYSYGYYYWGQGTLVTVSS
VL: DIQMTQSPSSLSASVGDRVTITCRASQGIGHYLAWYQQKPGKVPKLLIYTASTLQSGVPSRFSGSGSGTDFTLTISSLQPEDVATYYCQQFNSYPHTFGQGTRLEIK

Source: patent JP2008532476A (dated 2008)
